{"source": "patent US20030007968A1", "about": "“Methods of inducing organ transplant tolerance and correcting hemoglobinopathies” (priority 2001, published 2003)", "molecules": {"B1": {"name": "L104EA29YXC120S (receptor)", "chain": "MHVAQPAVVLASSRGIASFVCEYASPGKYTEVRVTVLRQADSQVTEVCAATYMMGNELTFLDDSICTGTSSGNQVNLTIQGLRAMDTGLYICKVELMYPPPYYEGIGNGTQIYVIDPEPSPDSD", "notes": "it was 'prepared in an identical manner' to CTLA4XC120S; also called monomeric L104EA29Y extracellular domain"}, "B2": {"name": "L104EA29YXC120S: single chain (monomeric) L104EA29Y extracellular domain with cysteine 120 to serine mutation (protein)", "chain": "B1 chain"}}, "key": {"[1]": {"tested_on": "C57BL/6 (B6) recipient mice", "experiment": "Congenic T cell-depleted bone marrow transplant after single busulfan dose, donor chimerism by flow cytometry", "format": "in vivo, mouse", "settings": "busulfan 0, 10, 20, 30 mg/kg i.p. one day before 2×10^7 congenic T cell-depleted bone marrow cells", "protocol": "Bone marrow preparation and treatment regimens.\nSimilar results were achieved when the busulfan was administered six or twelve hours before the administration of the T cell-depleted bone marrow cells."}, "[2]": {"settings": "with marrow rescue; cited from earlier work"}, "CD80Ig [3]": {"molecular_target": "T1, CD80Ig (Homo sapiens, UniProt P33681)", "T1 construct": "Ig (immunoglobulin fusion partner)", "T1 sequence (P33681 with tags, fused parts or gaps limits assumed)": "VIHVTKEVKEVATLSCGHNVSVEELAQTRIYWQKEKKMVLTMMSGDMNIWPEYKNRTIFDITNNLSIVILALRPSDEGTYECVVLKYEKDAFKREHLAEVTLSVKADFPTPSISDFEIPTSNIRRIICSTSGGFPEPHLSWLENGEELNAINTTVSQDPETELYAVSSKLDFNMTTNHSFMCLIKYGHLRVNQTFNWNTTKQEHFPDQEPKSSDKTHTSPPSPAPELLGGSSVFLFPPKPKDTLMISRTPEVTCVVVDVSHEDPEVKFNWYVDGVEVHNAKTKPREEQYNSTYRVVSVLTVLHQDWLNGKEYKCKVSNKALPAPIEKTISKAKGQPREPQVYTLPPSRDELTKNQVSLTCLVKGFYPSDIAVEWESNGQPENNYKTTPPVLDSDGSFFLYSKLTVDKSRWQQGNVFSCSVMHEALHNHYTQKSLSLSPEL", "experiment": "BIAcore surface plasmon resonance equilibrium and kinetic binding to immobilized CD80Ig", "settings": "for koff / kon: immobilized CD80Ig, means±standard deviation from three experiments", "source_text": "(§1) To synthesize and screen soluble CTLA4 mutant molecules with altered affinities for a B7 molecule (e.g. CD80, CD86), a two-step strategy was adopted. The experiments entailed first generating a library of mutations at a specific codon of an extracellular portion of CTLA4 and then screening these by BIAcore analysis to identify mutants with altered reactivity to B7. The Biacore assay system (Pharmacia, Piscataway, N.J.) uses a surface plasmon resonance detector system that essentially involves covalent binding of either CD80Ig or CD86Ig to a dextran-coated sensor chip which is located in a detector. The test molecule can then be injected into the chamber containing the sensor chip and the amount of complementary protein that binds can be assessed based on the change in molecular mass which is physically associated with the dextran-coated side of the sensor chip; the change in molecular mass can be measured by the detector system.\n(§2) COS cells were transfected with individual miniprep purified plasmid DNA and propagated for several days. Three day conditioned culture media was applied to BIAcore biosensor chips (Pharmacia Biotech AB, Uppsala, Sweden) coated with soluble CD80Ig or CD86Ig. The specific binding and dissociation of mutant proteins was measured by surface plasmon resonance (O'Shannessy, D. J., et al., 1997 Anal. Biochem. 212:457-468). All experiments were run on BIAcore™ or BIAcore™ 2000 biosensors at 25° C. Ligands were immobilized on research grade NCM5 sensor chips (Pharmacia) using standard N-ethyl-N′-(dimethylaminopropyl) carbodiimidN-hydroxysuccinimide coupling (Johnsson, B., et al. (1991) Anal. Biochem. 198: 268-277; Khilko, S. N., et al.(1993) J. Biol. Chem 268:5425-15434).\n(§3) BIAcore analysis conditions and equilibrium binding data analysis were performed as described in J. Greene et al. 1996 J. Biol. Chem. 271:26762-26771 and in U.S. patent application Ser. Nos. 09/579,927, and 60/214,065 which are herein incorporated by reference.\n(§4) Senosorgram baselines were normalized to zero response units (RU) prior to analysis. Samples were run over mock-derivatized flow cells to determine background RU values due to bulk refractive index differences between solutions. Equilibrium dissociation constants (Kd) were calculated from plots of Req versus C, where Req is the steady-state response minus the response on a mock-derivatized chip, and C is the molar concentration of analyte. Binding curves were analyzed using commercial nonlinear curve-fitting software (Prism, GraphPAD Software).\n(§5) Experimental data were first fit to a model for a single ligand binding to a single receptor (1-site model, i.e., a simple langmuir system, A+B AB), and equilibrium […] constants (Kd=[A]·[B]\\[AB]) were calculated from the equation R=Rmax·C/(Kd+C). Subsequently, data were fit to the simplest two-site model of ligand binding (i.e., to a receptor having two non-interacting independent binding sites as described by the equation R=Rmax1·C\\(Kd1+C)+Rmax2·C\\(Kd2+C).\n(§6) The goodness-of-fits of these two models were analyzed visually by comparison with experimental data and statistically by an F test of the sums-of-squares.\n(§7) Association and disassociation analyses were performed using BIA evaluation 2.1 Software Pharmacia). Association rate constants kon were calculated in two ways, assuming both homogenous single-site interactions and parallel two-site interactions. For single-site interactions, kon values were calculated according to the equation Rt=Req(1−exp^−ks(t-t0), where Rt is a response at a given time, t; Req is the steady-state response; to is the time at the start of the injection; and ks=dR/dt=kon·Ckoff, where C is a concentration of analyte, calculated in terms of monomeric binding sites. For two-site interactions kon values were calculated according to the equation Rt=Req1(1−exp^−ks1(t-t0)+Req2(1−exp^ks2(t-t0). For each model, the values of kon were determined from the calculated slope (to about 70% maximal association) of plots of ks versus C. […]"}, "CD86Ig [4]": {"molecular_target": "T2, CD86Ig (Homo sapiens, UniProt P42081)", "T2 construct": "Ig (immunoglobulin fusion partner)", "T2 sequence (P42081 with tags, fused parts or gaps limits assumed)": "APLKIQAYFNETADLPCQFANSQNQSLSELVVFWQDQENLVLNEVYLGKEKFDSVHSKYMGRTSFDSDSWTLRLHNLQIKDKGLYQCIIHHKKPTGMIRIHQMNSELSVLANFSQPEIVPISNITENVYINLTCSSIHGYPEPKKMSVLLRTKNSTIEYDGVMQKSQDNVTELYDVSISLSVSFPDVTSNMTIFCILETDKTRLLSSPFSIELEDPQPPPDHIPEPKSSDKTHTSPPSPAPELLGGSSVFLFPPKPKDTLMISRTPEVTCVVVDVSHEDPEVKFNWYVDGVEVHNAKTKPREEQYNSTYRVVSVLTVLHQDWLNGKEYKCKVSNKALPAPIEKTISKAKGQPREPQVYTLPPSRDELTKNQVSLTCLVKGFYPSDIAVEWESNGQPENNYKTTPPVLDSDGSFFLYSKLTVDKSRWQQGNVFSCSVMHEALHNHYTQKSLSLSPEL", "experiment": "BIAcore surface plasmon resonance equilibrium and kinetic binding to immobilized CD86Ig", "settings": "for koff / kon: immobilized CD86Ig, means±standard deviation from three experiments; for slower “off” rate than wild type CTLA4Ig: screening of COS culture media samples over immobilized CD86Ig", "source_text": "as §1, §2, §3, §4, §5, §6, §7"}, "CD80Ig [5]": {"molecular_target": "T3, CD80Ig (UniProt P33681 35-242, limits assumed)", "T3 construct": "Immobilized on the BIAcore chip by amine coupling; also called soluble CD80Ig", "T3 sequence (looked up)": "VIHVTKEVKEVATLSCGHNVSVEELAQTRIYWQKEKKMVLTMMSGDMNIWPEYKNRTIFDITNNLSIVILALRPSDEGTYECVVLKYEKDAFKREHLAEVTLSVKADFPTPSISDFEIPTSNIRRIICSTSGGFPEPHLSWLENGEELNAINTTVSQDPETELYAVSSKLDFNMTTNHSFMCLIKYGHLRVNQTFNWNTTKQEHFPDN", "experiment": "SPR (BIAcore), CD80Ig immobilized, purified monomeric analyte"}, "CD86Ig [6]": {"molecular_target": "T4, CD86Ig (UniProt P42081 24-247, limits assumed)", "T4 construct": "Immobilized on the BIAcore chip by amine coupling; also called soluble CD86Ig", "T4 sequence (looked up)": "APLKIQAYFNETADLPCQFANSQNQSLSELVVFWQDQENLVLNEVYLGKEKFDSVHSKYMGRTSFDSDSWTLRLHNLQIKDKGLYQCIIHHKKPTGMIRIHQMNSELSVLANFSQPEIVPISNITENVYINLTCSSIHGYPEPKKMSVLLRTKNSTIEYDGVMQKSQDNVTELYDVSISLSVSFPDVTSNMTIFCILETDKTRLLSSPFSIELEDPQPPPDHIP", "experiment": "SPR (BIAcore), equilibrium, CD86Ig immobilized, purified monomeric analyte"}, "CD86Ig [7]": {"molecular_target": "T4, CD86Ig", "experiment": "SPR (BIAcore), CD86Ig immobilized, purified monomeric analyte"}, "CD86Ig [8]": {"molecular_target": "T4, CD86Ig", "experiment": "SPR, immobilized CD86Ig, monomer against dimer (L104EA29YIg)"}, "CD86Ig [9]": {"molecular_target": "T4, CD86Ig", "experiment": "SPR, immobilized CD86Ig"}, "CD80Ig [10]": {"molecular_target": "T3, CD80Ig", "experiment": "SPR (BIAcore), equilibrium, CD80Ig immobilized, purified monomeric analyte"}, "CD80Ig [11]": {"molecular_target": "T3, CD80Ig", "experiment": "SPR, immobilized CD80Ig"}}, "data": [{"molecule": "CS(=O)(=O)OCCCCOS(C)(=O)=O", "note": "[busulfan]", "values": [{"measurement": "levels of donor hematopoietic chimerism versus dose", "setting": "[1]", "result": "directly proportional to the administered busulfan dose"}, {"measurement": "LD50", "setting": "[2]", "result": 136, "unit": "mg/kg"}]}, {"molecule": "CTLA4XC120S: single chain (monomeric) CTLA4 extracellular domain with cysteine 120 to serine mutation [reference compound]", "values": [{"measurement": "koff", "setting": "CD80Ig [3]", "result": "230 ± 10 (× 10^−3) S^−1"}, {"measurement": "kon", "setting": "CD80Ig [3]", "result": "12.0 ± 1.0 (× 10^5) M^−1 S^−1"}, {"measurement": "koff", "setting": "CD86Ig [4]", "result": "840 ± 55 (× 10^−3) S^−1"}, {"measurement": "kon", "setting": "CD86Ig [4]", "result": "16.5 ± 0.5 (× 10^5) M^−1 S^−1"}]}, {"molecule": "L104EA29LIg: double-site CTLA4 mutant Ig fusion, L104E and alanine +29 to leucine", "values": [{"measurement": "slower “off” rate than wild type CTLA4Ig", "setting": "CD86Ig [4]", "result": "approximately 4 fold"}]}, {"molecule": "L104EA29TIg: double-site CTLA4 mutant Ig fusion, L104E and alanine +29 to threonine", "values": [{"measurement": "slower “off” rate than wild type CTLA4Ig", "setting": "CD86Ig [4]", "result": "approximately 4 fold"}]}, {"molecule": "L104EA29WIg: double-site CTLA4 mutant Ig fusion, L104E and alanine +29 to tryptophan", "values": [{"measurement": "slower “off” rate than wild type CTLA4Ig", "setting": "CD86Ig [4]", "result": "approximately 4 fold"}]}, {"molecule": "B1", "values": [{"measurement": "koff", "setting": "CD80Ig [5]", "result": 0.071, "unit": "s⁻¹"}, {"measurement": "kon", "setting": "CD80Ig [5]", "result": 830000, "unit": "M⁻¹ s⁻¹"}, {"measurement": "Kd", "setting": "CD86Ig [6]", "result": 267, "unit": "nM"}, {"measurement": "koff", "setting": "CD86Ig [7]", "result": 0.3, "unit": "s⁻¹"}, {"measurement": "kon", "setting": "CD86Ig [7]", "result": "1.14e+06", "unit": "M⁻¹ s⁻¹"}, {"measurement": "fold lower binding affinity than the respective dimer", "setting": "CD86Ig [8]", "result": "35 to 80", "unit": "fold"}, {"measurement": "fold higher affinity than CTLA4XC120S", "setting": "CD86Ig [9]", "result": "~2", "unit": "fold"}, {"measurement": "fold slower rate of dissociation than CTLA4XC120S", "setting": "CD86Ig [9]", "result": "~3", "unit": "fold"}, {"measurement": "Kd", "setting": "CD80Ig [10]", "result": 85, "unit": "nM"}, {"measurement": "fold higher affinity than CTLA4XC120S", "setting": "CD80Ig [11]", "result": "~2", "unit": "fold"}, {"measurement": "fold slower rate of dissociation than CTLA4XC120S", "setting": "CD80Ig [11]", "result": "~3", "unit": "fold"}]}, {"molecule": "B2", "values": [{"measurement": "koff", "setting": "CD80Ig [3]", "result": "71 ± 5 (× 10^−3) S^−1"}, {"measurement": "kon", "setting": "CD80Ig [3]", "result": "8.3 ± 0.26 (× 10^5) M^−1 S^−1"}, {"measurement": "higher affinity than CTLA4XC120S to CD80Ig", "setting": "CD80Ig [3]; monomeric proteins", "result": "approximately 2 fold"}, {"measurement": "slower rate of dissociation from CD80Ig than CTLA4XC120S", "setting": "CD80Ig [3]; monomeric proteins", "result": "approximately 3 fold"}, {"measurement": "koff", "setting": "CD86Ig [4]", "result": "300 ± 10 (× 10^−3) S^−1"}, {"measurement": "kon", "setting": "CD86Ig [4]", "result": "11.4 ± 1.6 (× 10^5) M^−1 S^−1"}, {"measurement": "higher affinity than CTLA4XC120S to CD86Ig", "setting": "CD86Ig [4]; monomeric proteins", "result": "approximately 2 fold"}, {"measurement": "slower rate of dissociation from CD86Ig than CTLA4XC120S", "setting": "CD86Ig [4]; monomeric proteins", "result": "approximately 3 fold"}]}]}
